Assay results: the RNAGym collection of RNA variant scans (doi:10.7554/elife.80360)

B1: Twister Ribozyme (parent)
chain: AACACUGCCAAUGCCGGUCCCAAGCCCGGAUAAAAGUGGAGGGGGCGG

Variants of: B1
Assay: self-cleavage, relative activity (ratio to wild type); higher = more cleavage; co-transcriptional

Variant | self-cleavage
AACACUGCCAAUGCCGGUACCAACCCCGGAUAAAAGUGGAGGGGGCGG [C19A G24C] | 0.0773
AACACUGCCAAUGCCGGUUCCAUGCCCGGAUAAAAGUGGAGGGGGCGG [C19U A23U] | 0.203
AACACUGCCAAUGCCGGUUCCAGGCCCGGAUAAAAGUGGAGGGGGCGG [C19U A23G] | 0.219
AACACUGCCAAUGCCGGGCCCAAGCCCGGAUAAAAGUGGAGGGGCCGG [U18G G45C] | 0.0995
AACACUGCCAAUGCCGGGCCCAAGCCCGGAUAAAAGUGGAGGGGUCGG [U18G G45U] | 0.0852
AACACUGCCAAUGCCGGGCCCAAGCCCGGAUAAAAGUGGAGGGGACGG [U18G G45A] | 0.0963
AACACUGCCAAUGCCGGUGCCAAGCCUGGAUAAAAGUGGAGGGGGCGG [C19G C27U] | 0.131
AACACUGCCAAUGCCGGUGCCAAGCCCGGAAAAAAGUGGAGGGGGCGG [C19G U31A] | 0.346
AACACUGCCAAUGCCGGUGCCAAGCCCGGAUAACAGUGGAGGGGGCGG [C19G A34C] | 0.0815
AACACUGCCAAUGCCGGUGCCAAGCCCGGAUAAAAUUGGAGGGGGCGG [C19G G36U] | 0.099
AACACUGCCAAUGCCGGUUCCGAGCCCGGAUAAAAGUGGAGGGGGCGG [C19U A22G] | 0.0788
AACACUGCCAAUGCCGGGCCCAAGCCCGGAUAAAAGUGGAGGGGGCGC [U18G G48C] | 0.111
AACACUGCCAAUGCCGGGCCCAAGCCCGGAUAAAAGUGGAGGGGGCGA [U18G G48A] | 0.0606
AACACUGCCAAUGCCGGGCCCAAGCCCGGAUAAAAGUGGAGGUGGCGG [U18G G43U] | 0.0664
AACACUGCCAAUGCCGGUACCAAGCCCGGAUAAAAGUCGAGGGGGCGG [C19A G38C] | 0.0851
AACACUGCCAAUGCCGGUACCAAGCCCGGAUAAAAGUGGAGGGGGCUG [C19A G47U] | 0.131
AACACUGCCAAUGCCGGUACCAUGCCCGGAUAAAAGUGGAGGGGGCGG [C19A A23U] | 0.114
AACACUGCCAAUGCCGGUACCAGGCCCGGAUAAAAGUGGAGGGGGCGG [C19A A23G] | 0.0964
AACACUGCCAAUGCCGGUACCAAGCCCGGAUAAAAGUGGAGGAGGCGG [C19A G43A] | 0.355
AACACUGCCAAUGCCGGUACCAAGCCCGGAUAAAAGUGGAGGUGGCGG [C19A G43U] | 0.732
AACACUGCCAAUGCCGGUACCAAGCCCCGAUAAAAGUGGAGGGGGCGG [C19A G28C] | 0.135
AACACUGCCAAUGCCGGUACCAAGCCCAGAUAAAAGUGGAGGGGGCGG [C19A G28A] | 0.184
AACACUGCCAAUGCCGGUGCCAAGCCCGGAUAAAAGUGGAGGGGCCGG [C19G G45C] | 0.231
AACACUGCCAAUGCCGGUGCCAAGCCCGGAUAAAAGUGGAGGGGUCGG [C19G G45U] | 0.174
AACACUGCCAAUGCCGGUGCCAAGCCCGGAUAUAAGUGGAGGGGGCGG [C19G A33U] | 0.187
AACACUGCCAAUGCCGGUGCCAAGCCCGGAUAGAAGUGGAGGGGGCGG [C19G A33G] | 0.175
AACACUGCCAAUGCCGGUACCAAGCCCGGAUAAAAGUGGGGGGGGCGG [C19A A40G] | 0.124

Variant | self-cleavage
AACACUGCCAAUGCCGGUACCAAGCCCGGAUAAAAGAGGAGGGGGCGG [C19A U37A] | 0.0721
AACACUGCCAAUGCCGGGCCCAAGCCCGGAUAAAAGUGGAGGGGGCCG [U18G G47C] | 0.0806
AACACUGCCAAUGCCGGUGCCAAGCCCGGAUAAAAGUGGAGGGGGCGA [C19G G48A] | 0.167
AACACUGCCAAUGCCGGUGCCAAGACCGGAUAAAAGUGGAGGGGGCGG [C19G C25A] | 0.0881
AACACUGCCAAUGCCGGUUCCAAGCCCGGAUGAAAGUGGAGGGGGCGG [C19U A32G] | 0.855
AACACUGCCAAUGCCGGUUCCAAGCCCGGAUCAAAGUGGAGGGGGCGG [C19U A32C] | 1.05
AACACUGCCAAUGCCGGUACCAAGUCCGGAUAAAAGUGGAGGGGGCGG [C19A C25U] | 0.0834
AACACUGCCAAUGCCGGUGCGAAGCCCGGAUAAAAGUGGAGGGGGCGG [C19G C21G] | 0.0223
AACACUGCCAAUGCCGGUGGCAAGCCCGGAUAAAAGUGGAGGGGGCGG [C19G C20G] | 0.0478
AACACUGCCAAUGCCGGUACCAAGCGCGGAUAAAAGUGGAGGGGGCGG [C19A C26G] | 0.0718
AACACUGCCAAUGCCGGUACCAAGCACGGAUAAAAGUGGAGGGGGCGG [C19A C26A] | 0.0793
AACACUGCCAAUGCCGGGCCCAAGCCCGGAUAAAAGUGGACGGGGCGG [U18G G41C] | 0.0434
AACACUGCCAAUGCCGGUGCCAAGCUCGGAUAAAAGUGGAGGGGGCGG [C19G C26U] | 0.0735
AACACUGCCAAUGCCGGUACCAAGCCUGGAUAAAAGUGGAGGGGGCGG [C19A C27U] | 0.0993
AACACUGCCAAUGCCGGUGCCAAGCCCGGUUAAAAGUGGAGGGGGCGG [C19G A30U] | 0.456
AACACUGCCAAUGCCGGUGCCAAGCCCGGGUAAAAGUGGAGGGGGCGG [C19G A30G] | 0.468
AACACUGCCAAUGCCGGUGCCAAGCCCUGAUAAAAGUGGAGGGGGCGG [C19G G28U] | 0.212
AACACUGCCAAUGCCGGUGCCAAGCCCAGAUAAAAGUGGAGGGGGCGG [C19G G28A] | 0.211
AACACUGCCAAUGCCGGUUCCAAGCCCGGUUAAAAGUGGAGGGGGCGG [C19U A30U] | 0.82
AACACUGCCAAUGCCGGUUCCAAGCCCGGCUAAAAGUGGAGGGGGCGG [C19U A30C] | 0.591
AACACUGCCAAUGCCGGUGCCAAGCCCGGAUAAAAGUGGCGGGGGCGG [C19G A40C] | 0.132
AACACUGCCAAUGCCGGUGCCAAGCCCGGAUAAAAGGGGAGGGGGCGG [C19G U37G] | 0.0722
AACACUGCCAAUGCCGGUACCAAGCCCGGACAAAAGUGGAGGGGGCGG [C19A U31C] | 0.375
AACACUGCCAAUGCCGGUACCAAGCCCGGAAAAAAGUGGAGGGGGCGG [C19A U31A] | 0.219
AACACUGCCAAUGCCGGUGCCAAGCCCGGAUAAAAGUGGAGGGGGCGG [C19G] | 0.485
AACACUGCCAAUGCCGGUACCAAGCCCGGAUAAAAGUGGAGGGGGCGG [C19A] | 0.384
AACACUGCCAAUGCCGGUUCCAAGCCCGGAUAAAAGUGGAGGGGGCGG [C19U] | 1.05
